Data set [1] deals with T1, QKI (recombinant His-QKI) (UniProt Q96PU8).
T1 sequence: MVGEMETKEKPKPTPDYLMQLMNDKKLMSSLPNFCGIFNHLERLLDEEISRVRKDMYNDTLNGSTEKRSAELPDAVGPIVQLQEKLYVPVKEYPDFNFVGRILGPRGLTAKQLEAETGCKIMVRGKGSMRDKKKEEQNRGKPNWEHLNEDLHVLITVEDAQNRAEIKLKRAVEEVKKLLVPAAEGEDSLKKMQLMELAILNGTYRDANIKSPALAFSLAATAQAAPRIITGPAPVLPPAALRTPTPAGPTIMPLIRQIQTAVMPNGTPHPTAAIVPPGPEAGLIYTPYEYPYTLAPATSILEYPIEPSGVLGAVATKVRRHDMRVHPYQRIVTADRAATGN
The data set can be described thus: fluorescence polarization. To be noted: 2 mM Mg2+; FP: 20 mM HEPES pH 7.4, 150 mM NaCl, 2 mM MgCl2, 1 U/ul RiboLock, 10 mM DTT, 3 nM Cy3-RNA, 5 min, room temperature; domain array: 20 mM Tris-HCl pH 7.4, 200 mM ….

Data set [2] deals with T2, HIS-QKI (RNA-binding domain array) (human, UniProt Q96PU8 1-341).
T2 sequence: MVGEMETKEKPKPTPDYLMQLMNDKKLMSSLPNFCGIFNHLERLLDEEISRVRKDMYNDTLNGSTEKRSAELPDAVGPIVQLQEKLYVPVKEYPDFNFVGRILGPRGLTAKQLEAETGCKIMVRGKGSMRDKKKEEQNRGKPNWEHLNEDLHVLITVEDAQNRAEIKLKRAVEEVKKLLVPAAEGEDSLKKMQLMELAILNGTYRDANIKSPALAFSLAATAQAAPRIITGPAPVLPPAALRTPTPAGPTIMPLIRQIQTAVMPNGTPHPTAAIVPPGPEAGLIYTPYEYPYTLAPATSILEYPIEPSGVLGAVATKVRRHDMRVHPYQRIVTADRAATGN
The data set can be described thus: protein microarray probed with biotinylated miRNA; Domain array: 20 mM Tris-HCl pH 7.4, 200 mM KCl, 0.2 mM EDTA, 0.05% NP40, 2 ug/ul heparin, overnight 4 C. ORF array: PBS pH 7.0 with RNase inhibitor, 100 ng RNA; high values mean tight binding.

In the next data set the target is ZNF490 (human, UniProt Q9ULM2 1-529). In words: protein microarray; FP: 20 mM HEPES pH 7.4, 150 mM NaCl, 2 mM MgCl2, 1 U/ul RiboLock, 10 mM DTT, 3 nM Cy3-RNA, 5 min, room temperature; domain array: 20 mM Tris-HCl pH 7.4, 200 mM.
ZNF490, sequence (Q9ULM2 whole entry): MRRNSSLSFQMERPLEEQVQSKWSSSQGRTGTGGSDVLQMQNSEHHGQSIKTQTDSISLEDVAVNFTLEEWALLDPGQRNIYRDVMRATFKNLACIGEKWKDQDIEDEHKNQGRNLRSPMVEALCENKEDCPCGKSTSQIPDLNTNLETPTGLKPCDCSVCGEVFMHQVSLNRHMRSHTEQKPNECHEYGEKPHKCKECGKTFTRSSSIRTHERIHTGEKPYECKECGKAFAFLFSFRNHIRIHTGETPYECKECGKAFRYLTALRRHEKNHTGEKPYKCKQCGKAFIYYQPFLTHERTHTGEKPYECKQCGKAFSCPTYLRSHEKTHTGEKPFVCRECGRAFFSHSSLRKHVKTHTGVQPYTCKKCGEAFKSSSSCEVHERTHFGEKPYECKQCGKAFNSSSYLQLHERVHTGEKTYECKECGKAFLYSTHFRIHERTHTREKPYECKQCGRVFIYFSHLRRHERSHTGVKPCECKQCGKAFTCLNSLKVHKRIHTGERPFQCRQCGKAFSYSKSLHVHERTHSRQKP
A further data set deals with T3, ISY1 (human, UniProt Q9ULR0 1-285).
T3 sequence: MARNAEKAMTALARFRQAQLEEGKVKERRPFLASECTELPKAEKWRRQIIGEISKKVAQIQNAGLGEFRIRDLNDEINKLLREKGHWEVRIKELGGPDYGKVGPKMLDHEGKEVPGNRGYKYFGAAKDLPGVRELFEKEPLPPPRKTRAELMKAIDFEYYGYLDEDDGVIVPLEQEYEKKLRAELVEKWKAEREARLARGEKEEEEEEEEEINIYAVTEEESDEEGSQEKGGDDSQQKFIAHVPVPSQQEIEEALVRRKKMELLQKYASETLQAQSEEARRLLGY
The description is as above.

The target of a further data set is ZIC3 (human, UniProt O60481 1-467). The description is as above.
ZIC3, sequence (O60481 whole entry): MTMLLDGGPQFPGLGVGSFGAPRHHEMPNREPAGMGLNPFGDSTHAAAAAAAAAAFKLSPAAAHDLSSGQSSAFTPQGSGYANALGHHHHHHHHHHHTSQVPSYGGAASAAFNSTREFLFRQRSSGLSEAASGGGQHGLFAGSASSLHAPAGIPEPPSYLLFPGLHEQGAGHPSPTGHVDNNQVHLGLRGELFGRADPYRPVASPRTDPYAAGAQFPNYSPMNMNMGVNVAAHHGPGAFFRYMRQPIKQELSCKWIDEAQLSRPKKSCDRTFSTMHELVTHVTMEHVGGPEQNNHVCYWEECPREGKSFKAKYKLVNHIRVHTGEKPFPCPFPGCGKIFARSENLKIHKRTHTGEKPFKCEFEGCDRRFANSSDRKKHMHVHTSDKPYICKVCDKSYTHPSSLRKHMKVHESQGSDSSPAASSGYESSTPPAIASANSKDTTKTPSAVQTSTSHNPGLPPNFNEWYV
The next data set has as its target T4, ZNF597 (human, UniProt Q96LX8 1-424).
T4 sequence: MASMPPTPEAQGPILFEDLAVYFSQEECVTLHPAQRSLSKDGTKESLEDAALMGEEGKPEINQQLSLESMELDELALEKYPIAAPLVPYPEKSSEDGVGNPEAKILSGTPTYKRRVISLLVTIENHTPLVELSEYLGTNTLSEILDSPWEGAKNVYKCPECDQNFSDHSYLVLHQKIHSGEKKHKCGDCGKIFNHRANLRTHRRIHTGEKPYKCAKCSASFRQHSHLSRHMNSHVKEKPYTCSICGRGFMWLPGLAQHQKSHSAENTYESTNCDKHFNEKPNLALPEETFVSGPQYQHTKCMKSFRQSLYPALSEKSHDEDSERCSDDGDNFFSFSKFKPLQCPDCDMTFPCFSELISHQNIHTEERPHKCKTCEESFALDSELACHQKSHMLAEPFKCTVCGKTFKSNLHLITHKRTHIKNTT
Described as above.

In the next data set the target is T5, ARL10 (human, UniProt Q8N8L6 1-244).
T5 sequence: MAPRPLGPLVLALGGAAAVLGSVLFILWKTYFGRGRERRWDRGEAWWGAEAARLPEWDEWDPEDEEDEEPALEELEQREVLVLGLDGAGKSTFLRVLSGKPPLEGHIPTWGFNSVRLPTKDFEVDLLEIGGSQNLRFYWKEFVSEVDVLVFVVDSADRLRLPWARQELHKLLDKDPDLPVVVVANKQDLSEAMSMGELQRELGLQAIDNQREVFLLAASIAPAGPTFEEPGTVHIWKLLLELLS
Described as above.

The target in the next data set is T6, QKI (human ORF array) (human, UniProt Q96PU8 1-341).
T6 sequence: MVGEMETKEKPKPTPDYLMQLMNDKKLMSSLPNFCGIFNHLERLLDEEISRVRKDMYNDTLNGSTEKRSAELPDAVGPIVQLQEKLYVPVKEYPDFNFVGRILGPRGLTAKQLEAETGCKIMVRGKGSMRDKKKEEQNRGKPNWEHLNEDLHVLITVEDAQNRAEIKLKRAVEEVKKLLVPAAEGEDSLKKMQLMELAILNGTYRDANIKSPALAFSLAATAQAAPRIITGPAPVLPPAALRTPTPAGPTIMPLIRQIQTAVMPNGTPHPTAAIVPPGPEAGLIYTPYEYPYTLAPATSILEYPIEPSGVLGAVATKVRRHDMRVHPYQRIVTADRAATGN
Described as above.

Consider 12 molecules from paper PMC11574364.

For the molecule CAGUGCAAUGAUGAAAGGGCAU [miR-130b-Cy3], the Kd (usually a measure of binding affinity in units of concentration) in data set [1] is 7.03 nM.
Regarding UAGCUUAUCAGACUGAUGUUGA [miR-21-Cy3], in data set [1], the Kd was 48.5 nM.
Same read-out and setting: with UGAGGUAGUAGGUUGUGUGGUU [let-7b-Cy3] the figure was 8.07 nM.

B1: let-7a biotin/Cy3 (ssRNA)
RNA: UGAGGUAGUAGGUUGUAUAGUU
For B1, the binding signal in data set [2] was 336 ± 27.5 fluorescence intensity.

B2: miR-130b (internal labeling) (ssRNA)
RNA: CAGUGCAAUGAUGAAAGGGCAU
With B2, the binding result with ZNF490, in the data set with ISY1, in the data set with ZIC3, with ZNF597 and in the data set with ARL10 was “binds” in each case.

B3: let-7b biotin/Cy3 (ssRNA)
RNA: UGAGGUAGUAGGUUGUGUGGUU
B3 returned a binding signal in data set [2] of 1340 ± 56.7 fluorescence intensity.

B4: miR-130b biotin/Cy3 (ssRNA)
RNA: CAGUGCAAUGAUGAAAGGGCAU
In turn, B4 showed a binding signal in data set [2] of 428 ± 18.2 fluorescence intensity.

B5: let-7c biotin/Cy3 (ssRNA)
RNA: UGAGGUAGUAGGUUGUAUGGUU
For B5, the binding signal in data set [2] is 1280 ± 235 fluorescence intensity.

B6: let-7b (internal labeling) (ssRNA)
RNA: UGAGGUAGUAGGUUGUGUGGUU
modifications: 5' phosphate; amino-C6 U at position 18
Turning to B6, the binding result with ZNF490, in the data set with ISY1, with ZIC3, with ZNF597, in the data set with ARL10 and with QKI (human ORF array) was “binds” in each case.

B7: miR-21 biotin/Cy3 (ssRNA)
RNA: UAGCUUAUCAGACUGAUGUUGA
In data set [2], B7 registered a binding signal of 26.4 ± 0.354 fluorescence intensity.

B8: let-7d biotin/Cy3 (ssRNA)
RNA: AGAGGUAGUAGGUUGCAUAGUU
For the molecule B8, the binding signal in data set [2] was determined as 1210 ± 167 fluorescence intensity.

B9: miR-21 (internal labeling) (ssRNA)
RNA: UAGCUUAUCAGACUGAUGUUGA
Consider B9, for which the binding result with ZNF490, with ISY1, with ZIC3, in the data set with ZNF597 and in the data set with ARL10 was “binds” each time.
